Data published in patent publication US20230220084A1 (DRAGONFLY THERAPEUTICS, published 2023).
Changes are numbered by the printed parent chain. Blank lines part the entries; values can stand above or below the binder they belong to.

How the values were obtained:
cCLEC12A-His [1] = molecular target: T1, cCLEC12A-His (cynomolgus monkey, UniProt A0A2K5WXQ4 71-271); assay: SPR, purified murine mAb
T1 construct: Recombinant His-tagged cynomolgus CLEC12A; also called Cyno CLEC12A-His; recombinant cyno CLEC12A
T1 sequence: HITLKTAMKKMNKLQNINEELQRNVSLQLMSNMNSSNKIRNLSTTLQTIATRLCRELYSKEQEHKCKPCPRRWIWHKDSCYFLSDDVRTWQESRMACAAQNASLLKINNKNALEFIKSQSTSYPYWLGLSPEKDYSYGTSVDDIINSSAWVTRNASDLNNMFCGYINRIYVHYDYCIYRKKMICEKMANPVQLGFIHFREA

[2] = molecular target: T2, hCLEC12A-His fusion protein (human, UniProt Q5QGZ9 65-265, limits assumed); assay: SPR, purified murine mAb
T2 construct: Recombinant His-tagged human CLEC12A; also called Human CLEC12A-His; recombinant human CLEC12A
T2 sequence (looked up): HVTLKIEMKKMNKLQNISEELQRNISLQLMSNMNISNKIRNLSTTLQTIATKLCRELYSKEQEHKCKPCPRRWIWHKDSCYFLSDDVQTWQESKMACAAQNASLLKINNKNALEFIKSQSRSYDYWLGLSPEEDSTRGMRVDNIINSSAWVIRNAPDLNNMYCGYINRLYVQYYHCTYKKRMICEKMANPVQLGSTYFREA

[3] = molecular target: T2, hCLEC12A-His fusion protein; assay: SPR, analyte glycosylated hCLEC12A
[4] = molecular target: T2, hCLEC12A-His fusion protein; assay: SPR screening, fully purified murine mAb
[5] = molecular target: T3, human CLEC12A expressed on cells (human, UniProt Q5QGZ9 1-265); assay: flow cytometry, PL21 cells
T3 construct: whole, on cells; also called RMA-hCLEC12A; hCLEC12A+Ba/F3
T3 sequence (looked up): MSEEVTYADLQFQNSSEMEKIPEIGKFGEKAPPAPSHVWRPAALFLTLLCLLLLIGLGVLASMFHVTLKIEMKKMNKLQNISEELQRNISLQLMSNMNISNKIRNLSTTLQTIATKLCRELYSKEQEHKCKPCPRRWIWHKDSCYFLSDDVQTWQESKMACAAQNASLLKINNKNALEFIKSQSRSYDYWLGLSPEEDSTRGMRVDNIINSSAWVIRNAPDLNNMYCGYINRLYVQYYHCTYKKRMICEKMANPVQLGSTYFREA

De-sialylated hCLEC12A = molecular target: T4, De-sialylated hCLEC12A (human, UniProt Q5QGZ9 65-265, limits assumed, glycans de-sialylated); assay: SPR, analyte de-sialylated hCLEC12A
T4 construct: Same protein as m1 after removal of sialic acid; also called de-sialylated version of hCLEC12A
T4 sequence (looked up): T2 sequence (looked up)

cCLEC12A-His [6] = molecular target: T1, cCLEC12A-His; assay: SPR, purified murine mAb, Cyno CLEC12A-His
De-glycosylated hCLEC12A = molecular target: T5, De-glycosylated hCLEC12A (human, UniProt Q5QGZ9 65-265, limits assumed, N-glycans removed with PNGase); assay: SPR, analyte de-glycosylated hCLEC12A
T5 construct: Same protein as m1 after PNGase treatment; also called PNGase-treated hCLEC12A; deglycosylated version of hCLEC12A
T5 sequence (looked up): T2 sequence (looked up)

[7] = molecular target: T2, hCLEC12A-His fusion protein; assay: yeast display flow cytometry with hCLEC12A-his (PE-A against FITC-A)
[8] = molecular target: T2, hCLEC12A-His fusion protein; assay: SPR 37 C, two-state fit, ka1; ka1 of two-state fit, 37 C
[9] = molecular target: T2, hCLEC12A-His fusion protein; assay: SPR 37 C, two-state fit, kd2
[10] = molecular target: T2, hCLEC12A-His fusion protein; assay: SPR 37 C, two-state fit; overall KD of two-state fit, 37 C
[11] = molecular target: T2, hCLEC12A-His fusion protein; assay: SPR 37 C, two-state fit, kd1; kd1 of two-state fit, 37 C
[12] = molecular target: T2, hCLEC12A-His fusion protein; assay: yeast display flow cytometry with hCLEC12A-his (PE-A against FITC-A); remark: listed apart in the source
[13] = molecular target: T2, hCLEC12A-His fusion protein; assay: yeast display, flow cytometry
[14] = molecular target: T2, hCLEC12A-His fusion protein; assay: SPR screening
[15] = molecular target: T2, hCLEC12A-His fusion protein; assay: SPR, purified murine mAb, Human CLEC12A-His

B1: 15A10.G8 (antibody, V domains shown)
VH: EVQLQESGAELVRSGASIKLSCAASAFNIKDYFIHWVRQRPDQGLEWIGWIDPENDDTEYAPKFQDKATMTADTSSNTAYLQLSSLTSADTAVYYCNALWSRGGYFDYWGQGTTLTVSS
VL: EVLLTQSPAIIAASPGEKVTITCSARSSVSYMSWYQQKPGSSPKIWIYGISKLASGVPARFSGSGSGTYFSFTINNLEAEDVATYYCQQRSYYPFTFGSGTKLEIK
notes: Murine mAb purified from the hybridoma subclone
- Kd (cCLEC12A-His [1]): 3.3 nM
- koff (cCLEC12A-His [1]): 0.000659 s⁻¹
- kon (cCLEC12A-His [1]): 196000 M⁻¹ s⁻¹
- Kd [2]: 1.6 nM
- koff [2]: 0.000494 s⁻¹
- kon [2]: 301000 M⁻¹ s⁻¹

B2: 16B8.C8 (antibody, V domains shown)
VH: EVQLQESGPGLVQPSQSLSITCTVSGFSLTNYGLHWVRQSPGKGLEWLGVIWSGGKTDYNTPFKSRLSISKDISKNQVFFKMNSLQPNDTAIYFCAKYDYDDSLDYWGQGTSVTVSS
VL: DIQMNQSPSSLSASLGDTIAITCHASQNINFWLSWYQQKPGNIPKLLIYEASNLHTGVPSRFSGSGSGTRFTLTISSLQPEDIATYYCQQSHSYPLTFGQGTKLEIK
notes: Murine mAb purified from the hybridoma subclone; also called Murine 16B8 mAb; Murine 16B8. mAb
- Kd [3]: 0.012 nM
- koff [3]: 4.7e-05 s⁻¹
- kon [3]: 4.05e+06 M⁻¹ s⁻¹
- Kd [4]: 0.008 nM
- koff [4]: 2.35e-05 s⁻¹
- kon [4]: 3.03e+06 M⁻¹ s⁻¹
- EC50 [5]: 0.18 nM
- Max MFI [5]: 300 MFI
- Kd (De-sialylated hCLEC12A): 0.007 nM
- koff (De-sialylated hCLEC12A): 3.62e-05 s⁻¹
- kon (De-sialylated hCLEC12A): 5.25e+06 M⁻¹ s⁻¹
- binding result (cCLEC12A-His [6]): no binding
- Kd (De-glycosylated hCLEC12A): 0.011 nM
- koff (De-glycosylated hCLEC12A): 4.45e-05 s⁻¹
- kon (De-glycosylated hCLEC12A): 4.26e+06 M⁻¹ s⁻¹
- Kd [2]: 0.01 nM
- koff [2]: 4.44e-05 s⁻¹
- kon [2]: 4.05e+06 M⁻¹ s⁻¹

B3: Merus-CLL1 (antibody, V domains shown)
VH: EVQLVQSGAEVKKPGASVKVSCKASGYTFTSYYMHWVRQAPGQGLEWMGIINPSGGSTSYAQKFQGRVTMTRDTSTSTVYMELSSLRSEDTAVYYCARGNYGDEFDYWGQGTLVTVSS
VL: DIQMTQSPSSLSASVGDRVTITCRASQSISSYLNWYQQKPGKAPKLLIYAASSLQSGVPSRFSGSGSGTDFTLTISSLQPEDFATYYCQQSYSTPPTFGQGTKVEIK
- EC50 [5]: 2.02 nM
- Max MFI [5]: 201 MFI

B4: parent scFv (YDYDDSLDY) (SEQ ID NO:5) of F3′-1602, yeast display (scFv)
scFv: QLQLQESGPGLVKPSETLSLTCTVSGFSLTNYGLHWIRQPPGKCLEWIGVIWSGGKTDYNPSLKSRVTISKDTSKNQFSLKLSSVQAADTAVYYCAKYDYDDSLDYWGQGTLVTVSSGGGGSGGGGSGGGGSGGGGSDIQMTQSPSSLSASVGDRVTITCHASQNINFWLSWYQQKPGKAPKLLIYEASNLHTGVPSRFSGSGSGTRFTLTISSLQPEDIATYYCQQSHSYPLTFGCGTKLEIK
- binding result [7]: binds

B5: AB0053 (bispecific antibody)
chain: B4 scFv with S103A
- kon [8]: 1.63e+06 M⁻¹ s⁻¹
- koff [9]: 0.000949 s⁻¹
- Kd [10]: 2.41 nM
- koff [11]: 0.0157 s⁻¹

B8: scFv CDRH3 variant YDYDDLLDY (SEQ ID NO:143), yeast display (scFv)
scFv: B4 scFv with S103L
notes: As m72
- binding result [13]: binds

B12: 9E4.B7 (antibody, V domains shown)
VH: EVQLQESGAELMKPGASVKISCRTTGYTFSTYWIEWVKQRPGRGPEWIGELFPGNSDTTLNEKFTGKATFTADSSSNTAYMQLSSLTSEDSAVYYCARSGYYGSSLDYWGQGTTLTVSS
VL: GIVMTQSPASLSASVGETVTITCRAGENIHSYLAWYQQKQGKSPQLLVYNAKTLAEGVPSRFSGSGSGTQFSLKINSLQPEDFGSYYCQHHYGTPRTFGGGTKLEIK
notes: as for B1
- EC50 [5]: 0.64 nM
- Max MFI [5]: 186 MFI
- binding result (cCLEC12A-His [6]): no binding

B13: 9F11.B7 (antibody, V domains shown)
VH: EVQLQESGGGLVQPGGSRKLSCAASGFTFNSFGMHWVRQAPEKGLEWVAFISSGSTSIYYANTVKGRFTISRDNPKNTLFLQMTSLRSEDTAMYYCARDGYPTGGAMDYWGQGTSVTVSS
VL: DIKMTQSPSSMYASLGERVTITCKASQDIYNYLSWFQLKPGKSPRPLIYRANILVSGVPSKFSGSGSGQDYSLTINSLEYEDLGIYYCLQFDAFPFTFGSGTKLEIK
notes: as for B1
- EC50 [5]: 0.56 nM
- Max MFI [5]: 217 MFI
- binding result (cCLEC12A-His [6]): no binding
- Kd [2]: 1.4 nM
- koff [2]: 0.00157 s⁻¹
- kon [2]: 1.14e+06 M⁻¹ s⁻¹

B15: Genentech-h6E7 (antibody, V domains shown)
VH: EVQLVQSGAEVKKPGASVKVSCKASGYSFTDYYMHWVRQAPGQGLEWIGRINPYNGAAFYSQNFKDRVTLTVDTSTSTAYLELSSLRSEDTAVYYCAIERGADLEGYAMDYWGQGTLVTVSS
VL: DIQMTQSPSSLSASVGDRVTITCRASQSVSTSSYNYMHWYQQKPGKPPKLLIKYASNLESGVPSRFSGSGSGTDFTLTISSLQPEDFATYYCQHSWEIPLTFGQGTKVEIK
- EC50 [5]: 5 nM
- Max MFI [5]: 265 MFI

Other lines, results leading:

- binding result [12]: no binding
B6: scFv CDRH3 variant YDYDDVLDY (SEQ ID NO:144), yeast display (scFv)
scFv: B4 scFv with S103V
notes: As m72

- binding result [12]: no binding
B7: scFv CDRH3 variant YDYDDTLDY (SEQ ID NO:145), yeast display (scFv)
scFv: B4 scFv with S103T
notes: As m72

- binding result [13]: binds
B9: scFv CDRH3 variant YDYDDILDY (SEQ ID NO:142), yeast display (scFv)
scFv: B4 scFv with S103I
notes: As m72

- binding result [12]: no binding
B10: scFv CDRH3 variant YDYDESLDY (SEQ ID NO:146), yeast display (scFv)
scFv: B4 scFv with D102E
notes: As m72

- binding result [13]: binds
B11: scFv CDRH3 variant YDYDDALDY (SEQ ID NO:141), yeast display (scFv)
scFv: B4 scFv with S103A

- Kd [14]: 1.07 nM
- koff [14]: 0.00102 s⁻¹
- kon [14]: 950000 M⁻¹ s⁻¹
B14: m9F11-hIgG1 (antibody, V domains shown)
VH: B13 VH
VL: B13 VL
notes: also called chimeric parent mouse 9F11.B7 mAb

- binding result [15]: binds
B16: 13E1.A4 (antibody, V domains shown)
VH: EVQLQESGPELEKPGASVRISCKASGYSFTAYNMNWVKQSNGKSLEWIGNIDPSYGDATYNQKFKGKATLTVDKSSSTAYMQLKSLTSEDSAVYYCARDNYYGSGYFDYWGQGTTLTVSS
VL: SVLMTQTPLSLPVSLGDRASISCRSSQGIVHINGNTYLEWYLQKPGQSPKLLIYKVSNRFSGVPDRFSGSGSGTDFTLKISRVEAEDLGVYYCFQGSHVPWTFGGGTKLEIK
notes: as for B1
